Assay results published in PMC4595762, “Structural basis of Ornithine Decarboxylase inactivation and accelerated degradation by polyamine sensor Antizyme1” (Scientific Reports, 2015).

Molecular target: T1, Ornithine decarboxylase (human, UniProt P11926 1-461)
T1 construct: Ornithine decarboxylase, Homo sapiens, full length; Cloned into pGEX-6p-1; The complex was purified and crystallised with the co-factor PLP (1 mM); One ODC monomer stands in the complex with cAZ1; also called ODC; human ODC; source: E. coli BL21 (DE3), purified (glutathione Sepharose 4B, PreScission cleavage, Superdex-200)
T1 sequence (looked up): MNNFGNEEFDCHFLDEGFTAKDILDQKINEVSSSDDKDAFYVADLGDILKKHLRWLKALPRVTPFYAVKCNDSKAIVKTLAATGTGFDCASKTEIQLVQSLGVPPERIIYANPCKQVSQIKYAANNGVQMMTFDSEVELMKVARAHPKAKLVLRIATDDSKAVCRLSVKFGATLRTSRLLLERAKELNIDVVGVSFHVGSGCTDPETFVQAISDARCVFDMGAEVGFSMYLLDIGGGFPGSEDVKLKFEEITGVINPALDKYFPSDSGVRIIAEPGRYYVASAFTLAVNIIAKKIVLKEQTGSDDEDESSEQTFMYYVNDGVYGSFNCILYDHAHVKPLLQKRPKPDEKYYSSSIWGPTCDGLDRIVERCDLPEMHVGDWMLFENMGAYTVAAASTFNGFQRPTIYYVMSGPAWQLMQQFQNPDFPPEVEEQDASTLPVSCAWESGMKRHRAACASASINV
Test: crystal structure; purified ODC and cAZ1 mixed on ice for 1 hour with cAZ1 in excess; complex purified on Superdex-200 in 20 mM Tris pH 8.5, 150 mM NaCl, 2 mM DTT, 1 mM PLP; hanging-drop crystals at 15 °C; 3.2 Å
Settings: both partners purified

binding result: binds
B1: N-terminally truncated Antizyme1 (residues 69-228) (domain or fragment)
chain: not shown
notes: Antizyme1 (AZ1), Homo sapiens, N-terminally truncated, residues 69-228; Cloned into pGEX-6p-1; also called cAZ1; AZ1; source: E. coli BL21 (DE3), purified (glutathione Sepharose 4B, PreScission cleavage, Superdex-200)
